# Data from US20220017629A1 (SHANGHAI PHARMAEXPLORER, published 2022).
# Numbering of substitutions follows the chain as printed.
# T1: human-derived OX40, full-length, on cells (human, UniProt P43489 29-277)
# T1 construct: whole, on cells; also called hOX40; CHOK1-hOX40
# T1 sequence (looked up): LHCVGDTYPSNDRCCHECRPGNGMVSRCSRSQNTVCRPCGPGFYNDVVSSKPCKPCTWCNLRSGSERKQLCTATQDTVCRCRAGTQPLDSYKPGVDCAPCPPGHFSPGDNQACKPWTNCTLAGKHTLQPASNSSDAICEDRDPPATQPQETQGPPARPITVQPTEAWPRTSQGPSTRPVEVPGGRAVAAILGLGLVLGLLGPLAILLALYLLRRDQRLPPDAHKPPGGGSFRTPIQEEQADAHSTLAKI
# T2: OX40 (antigen of the competitive ELISA of Example 5) (UniProt P43489 29-214)
# T2 sequence (looked up): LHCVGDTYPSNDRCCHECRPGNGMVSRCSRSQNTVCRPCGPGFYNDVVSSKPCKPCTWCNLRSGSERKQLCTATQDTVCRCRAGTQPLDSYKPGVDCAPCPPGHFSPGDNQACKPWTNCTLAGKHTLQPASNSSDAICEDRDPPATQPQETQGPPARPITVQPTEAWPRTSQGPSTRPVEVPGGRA
# B1: Humab035-24 (antibody, V domains shown)
# VH: QVQLVQSGAEVKKPGASVKVSCKASDYTFTDYEMHWVRQAPGQGLEWIGAIDPETGGTAYNQKFKDRVTMTADTSTSTVYMELSSLRSEDTAVYYCAKTGYQFDYWGQGTTVTVSS
# VL: DIQMTQSPSSVSASVGDRVTITCKASQNVGSNVAWYQQKPGKAPKALIYSASYRYSGVPSRFSGSGSGTDFTLTISSLQPEDFATYYCQQYNSHPYTFGQGTKLEIK
# B2: MAb053 (antibody, IgG2c, V domains shown)
# VH: QVQLKQSGPGLVQPSQSLSIICTVSGFSLSDYGVMWVRQSPGKGLEWLGVIWSGGSTDYNAAFTSRLSISRDNSKRQVIFKMNSLQAEDTAIHYCVRETMDYWGQGTSVTVS
# VL: DIQMTQTTSSLSASLGDRVTISCRASQDISNYLNWYQQRPDGTVKRLIYYTSRLHSGVPSRFSGSGSGTDYSLTISSLEQEDIATYFCQQAHTLPWTFGGGTKLEIK
# B3: MAb055 (antibody, IgG1, V domains shown)
# VH: QVQLKQSGPGLLQPSQSLSITCTVSGFSLDEYGVHWFRQSPGKGLEWLGVIWSGGSTDYNAAFISRLSIRKDNSKSQIFFNMNSLQADDTAIYYCVREEWEYWGQGTTLTVS
# VL: B2 VL with A25P, S30D, Y36F, V44I, R46L, S76N, S77N, W96Y
# B4: MAb041 (antibody, IgG1, V domains shown)
# VH: EVQLVESGGGLVKPGGSLKLSCAVSGFTFSNSAMSWVRQTPEKRLEWVATITDGGDYTYYSDNVKGRFTISRDNAKNNLYLQMSHLKSEDTAMYYCVRGISYWGQGTLVTVS
# VL: DIVLTQSPASLAVSLGQRATISCRASKSVSTSSDSYMHWYQQKPGQPPKLLIKYASNLESGVPVRFSGSGSGTDFTLNIHPVEEEDAATYYCQHSREFPWTFGGGTKLEIK
# B5: MAb034 (antibody, IgG1, V domains shown)
# VH: EVQLQQSGPVLVKPGASVKMSCKASGYTFTDFYMNWMRQSHGKSLEWIGVIDPYNGNTSYNQKFKGKATLTVDKSSSTAYMELNSLTSEDSAVYYCARGNYYYYAMDYWGQGTSVTVSS
# VL: DIVLTQSPASLAVSLGQRATISCRASESVSIHGTHLMYWYQQKPGQPPKLLIYAASNLESGVPARFSGSGSETDFTLNIHPVEEEDAATFFCQQSIEDPPTFGGGTKLEIK
# B6: MAb047 (antibody, IgG2c, V domains shown)
# VH: EVQLVESGGGLVKPGGSLKLSCAASGFTFSDYGMYWIRQAPEKGLEWVAYISNGGSSIYYADTVKGRFTVSRDNAKNTLFLQMTSLRSEDTAIYYCARGGELGFAYWGQGTLVTVSA
# VL: DIQMTQSPASLSVSVGETVTITCRASENIYSNLAWYQQKQGKSPQLLVYAAINLVEGVPSRFSGSGSGTQYSLKINSLQSEDFGSYFCQHFWGLPYTFGGGTKLE
# B7: MAb033 (antibody, IgG1, V domains shown)
# VH: QVQLQQSGAELVRPGTAVRVSCKASGYAFTNYFIEWVKQRPGQGLEWIGVINPGSGDTYYSEKFQGKATLTADKSSSTAYMQLSSLTSEDSAVYFCAREDDYSWFTYWGQGTLVTVSA
# VL: DIVLTQSPASLAVSLGQRATISCRASENVDNYGISFMHWYRQKPGQPPKLLIYRASNLESGIPARFSGSGSRTDFTLTINPVETDDVATYYCQQSNKDPYTFGGGTKLEIK
# B8: MAb058 (antibody, IgG1, V domains shown)
# VH: EVQLQQSGPVLVKPGAAVKMSCKASGYIFTDYYIHWVKLSRGESLEWIGLINPYNGGTNYNQQFTGKATLTVDKSSSTAYVELNSLTSGDSAVYYCVRRTGYFDYWGQGTTLTVSS
# VL: DVVMTQTPLSLPVSLGDQASISCRSSQSLVHSNGNTYLHWYLQKPGQSPKLLIYKVSNRFSGVPDRFSGSGSGTDFTLKISRVEAEDLGVYFCSQTTHVPYTFGGGTKLEIK
# B9: MAb049 (antibody, IgG1, V domains shown)
# VH: EVQLQQSGPELVKPGASVKISCKASGHTLTDYYMNWVKQSHGKSPEWIGDINPNNDGIDYNQKFRGKAILTVDKSSSSFYMELRSLTSEDSAVYYCVGFVRGYFVSWGQGTTLTVSS
# VL: DIQMTQTTSSLSASLGDRVTINCRASQDISNYLNWYQQKPDGTVKLLIYYTSRLRSGVPSRFSGSGSGTDYSLTINNLDQEDFATYFCQQGNTLPWTFGGGTKLEI
# B10: MAb035 (antibody, IgG1, V domains shown)
# VH: QVQLQQSGAELVRPGASVTLSCKASDYTFTDYEMHWVYQTPVHGLEWIGAIDPETGGTAYNQKFKDKAILTADKSSNTAYMELRSLTSEDSAVYFCTKTGYQFDYWGQGTTLTVSS
# VL: DIVMTQSQKFMSTSVGDRVSVTCKASQNVGSNVAWYQQKPGQSPKALIYSASYRYSGVPDRFAGSGSGTDFTLTISNVQSEDLADYFCQQYNSHPYTFGGGTKLEIK
# B11: MAb064 (antibody, IgG2c, V domains shown)
# VH: QVQLKESGPGLVAPSQTLSITCSVSGFSLTNYAVSWVRQPPGKGLEWLGVMWGDGNTNYHSTLISRLSISKDNSKSQVFLKLNSLQTDDTATYYCARSSGWYFDVWGTGTTVTVSS
# VL: DIQMTQTTPSLSVTLGDRVTIRCRASQDINNYLNWYQQKPDGTVKLLIYYTSESRSGVPSRFSGSGSGTDYSLTISNLEQEDIATYFCQQGYALPPAFGGGTKLEIK
# Target: T1, human-derived OX40, full-length, on …
# Experiment: FACS on cells expressing human OX40 (CHOK1-hOX40)
row,binding result,Binder
1,binds,B1

# Target: T2, OX40 (antigen of the competitive ELISA …)
# Experiment: competitive ELISA; competitor MEDI0562
row,percentage of competition [%],Binder
1,11,B2
2,16,B3
3,2,B4
4,13,B5
5,97,B6
6,7,B7
7,26,B8
8,97,B9
9,59,B10
10,96,B11

# Target: T2, OX40 (antigen of the competitive ELISA …)
# Experiment: competitive ELISA; competitor BMS-986178
row,percentage of competition [%],Binder
1,2,B2
2,3,B3
3,-6,B4
4,93,B5
5,0,B6
6,81,B7
7,-4,B8
8,0,B9
9,90,B10
10,1,B11

# Target: T2, OX40 (antigen of the competitive ELISA …)
# Experiment: competitive ELISA; competitor PF-04518600
row,percentage of competition [%],Binder
1,93,B2
2,95,B3
3,-8,B4
4,5,B5
5,-2,B6
6,-7,B7
7,11,B8
8,-2,B9
9,-5,B10
10,4,B11

# Target: T2, OX40 (antigen of the competitive ELISA …)
# Experiment: competitive ELISA; competitor MOXR0916
row,percentage of competition [%],Binder
1,-2,B2
2,-3,B3
3,1,B4
4,0,B5
5,-3,B6
6,-1,B7
7,-3,B8
8,90,B9
9,3,B10
10,90,B11
